# Reference: publication PMC5499572 (Nucleic Acids Research, 2017)
# T1: Rsa1p_(230-381) (S. cerevisiae, UniProt Q08932 230-381)
# T1 sequence: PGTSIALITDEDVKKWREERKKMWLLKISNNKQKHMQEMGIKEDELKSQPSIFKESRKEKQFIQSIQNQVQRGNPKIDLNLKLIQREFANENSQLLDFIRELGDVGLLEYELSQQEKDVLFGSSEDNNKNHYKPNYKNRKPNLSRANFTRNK
# T2: His6TRX-Rrp9p (S. cerevisiae, UniProt Q06506 1-573)
# T2 sequence: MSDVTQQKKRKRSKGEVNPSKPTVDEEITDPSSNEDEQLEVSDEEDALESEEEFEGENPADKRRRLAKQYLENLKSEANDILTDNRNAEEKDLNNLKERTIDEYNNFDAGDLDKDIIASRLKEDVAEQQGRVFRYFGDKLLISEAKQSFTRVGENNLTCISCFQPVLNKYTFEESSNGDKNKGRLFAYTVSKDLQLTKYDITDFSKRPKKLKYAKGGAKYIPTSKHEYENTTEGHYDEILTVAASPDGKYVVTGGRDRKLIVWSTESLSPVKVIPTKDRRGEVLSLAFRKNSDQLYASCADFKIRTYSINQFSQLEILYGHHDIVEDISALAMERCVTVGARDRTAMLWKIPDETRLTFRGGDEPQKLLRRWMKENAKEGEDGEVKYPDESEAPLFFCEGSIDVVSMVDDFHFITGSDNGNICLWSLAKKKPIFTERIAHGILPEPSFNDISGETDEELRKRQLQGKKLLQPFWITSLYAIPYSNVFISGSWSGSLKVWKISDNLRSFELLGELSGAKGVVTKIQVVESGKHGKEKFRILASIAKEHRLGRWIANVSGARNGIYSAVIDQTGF
# B1: Snu13p (recombinant, wild type) (natural protein)
# chain: MSAPNPKAFPLADAALTQQILDVVQQAANLRQLKKGANEATKTLNRGISEFIIMAADCEPIEILLHLPLLCEDKNVPYVFVPSRVALGRACGVSRPVIAASITTNDASAIKTQIYAVKDKIETLLI
# B2: Snu13p variant E72/A (recombinant) (natural protein)
# chain: MSAPNPKAFPLADAALTQQILDVVQQAANLRQLKKGANEATKTLNRGISEFIIMAADCEPIEILLHLPLLCADKNVPYVFVPSRVALGRACGVSRPVIAASITTNDASAIKTQIYAVKDKIETLLI
# Tests used:
# Rsa1p_(230-381) = biological target: T1, Rsa1p_(230-381); assay: native gel or EMSA
# His6TRX-Rrp9p = biological target: T2, His6TRX-Rrp9p; assay: native gel or EMSA
Binder,binding result (Rsa1p_(230-381)),binding result (His6TRX-Rrp9p)
B1,binds,binds
B2,,binds
